Source: the supplement of paper PMC10724198
± gives the standard deviation of the averaged measurements.

tested on: Saccharomyces cerevisiae; assay: protein stability index of tFT-peptide fusion (C-terminal peptide) (PSI (0-1 scale)); higher = more stable (slower turnover); conditions: genetic background: wild type; temperature: 30 C
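Note: PSI is a weighted mean of sequencing reads over stability bins, variants kept only with over 10 reads, mCherry proximal and sfGFP distal, peptide attached via GGGS linker.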

| Sequence | protein stability index |
| --- | --- |
| NKRLKNKIKRIK | 0.651 ± 0.037 |
| NLPLVDIIPISN | 0.828 ± 0.025 |
| NNSLPTDVDKYL | 0.683 ± 0.019 |
| NPYKREKKKNKK | 0.787 ± 0.14 |
| NQKEIKYTLKYI | 0.684 ± 0.018 |
| NQVNEELDKKGH | 0.719 ± 0.14 |
| NRQDASAPVCLL | 0.719 ± 0.049 |
| NRRPLVQNGKLF | 0.67849 ± 0.00026 |
| NRVRVNSSYGRD | 0.71 ± 0.018 |
| NSGSRGTRVVGL | 0.705 ± 0.084 |
| NSKGKKFKCLKK | 0.766 ± 0.0099 |
| NSSEIGQNADTA | 0.672 ± 0.025 |
| NTRKIEAVGSER | 0.658 ± 0.024 |
| NTTKLEKRGNIE | 0.574 ± 0.084 |
| NVGEWGTAVMSR | 0.684 ± 0.034 |
| NVLIASGIEVKK | 0.629 ± 0.0099 |
| NVTIRVAIRYHE | 0.575 ± 0.021 |
| NVWGTGGMCTFV | 0.7058 ± 0.0019 |
| NWRAAGQSGPES | 0.67 ± 0.012 |
| NYKVRKQKVDRN | 0.674 ± 0.062 |
| PACPPTSDFPSL | 0.623 ± 0.073 |
| PAFRSDKQQSQE | 0.703 ± 0.074 |
| PAGVDQPYIPGE | 0.6002 ± 0.0054 |
| PAHSTEVVPRVL | 0.717 ± 0.018 |
| PALAPLRPLPPV | 0.669 ± 0.0073 |
| PALCGGFFLVGV | 0.636 ± 0.019 |

| Sequence | protein stability index |
| --- | --- |
| PALGLELYFVLV | 0.519 ± 0.012 |
| PALLRLGTGAVG | 0.711 ± 0.047 |
| PALPFAPPPLPP | 0.685 ± 0.02 |
| PALPPASPRPAL | 0.776 ± 0.072 |
| PALPPPGSPPPS | 0.616 ± 0.01 |
| PANRGPPTPFSP | 0.729 ± 0.024 |
| PAPAPPPSPLPP | 0.655 ± 0.028 |
| PAPGLTPAGRAP | 0.777 ± 0.14 |
| PAPPFPIRPPAA | 0.653 ± 0.015 |
| PAPPPLPSAAPP | 0.706 ± 0.14 |
| PAPPPPARPALP | 0.706 ± 0.027 |
| PAPPPPFPPSPP | 0.695 ± 0.039 |
| PAPPPVRPRSLP | 0.627 ± 0.021 |
| PAPRWFSHPSYP | 0.676 ± 0.01 |
| PAPSASPPLLRC | 0.722 ± 0.03 |
| PAPSPLPPPPSL | 0.6978 ± 0.0057 |
| PASCARVFVGMS | 0.67 ± 0.037 |
| PASDPPHRDPPH | 0.658 ± 0.019 |
| PCASGSPRFCQR | 0.707 ± 0.025 |
| PCLSFPPALRAA | 0.641 ± 0.012 |
| PCPIGGRPCRVG | 0.7275 ± 0.0037 |
| PCPPNSPPLSPT | 0.71 ± 0.043 |
| PCPPPRSPPLAP | 0.74539 ± 0.00027 |
| PCRLTRSPRTLP | 0.689 ± 0.1 |
| PCSLPLVLSFPH | 0.6846 ± 0.0037 |
| PCSPLSLPPPFP | 0.722 ± 0.0073 |

| Sequence | protein stability index |
| --- | --- |
| PCSVPHSGSAPA | 0.712 ± 0.044 |
| PDEFIAKRWNST | 0.62 ± 0.012 |
| PDVNEATPKLWC | 0.694 ± 0.027 |
| PDYPLSCLLFFP | 0.643 ± 0.011 |
| PELCLSSPSSLS | 0.686 ± 0.018 |
| PESAWLSPRCVF | 0.6696 ± 0.0039 |
| PFAFLSPLIPPP | 0.749 ± 0.013 |
| PFFFLWSLYFFL | 0.5096 ± 0.0038 |
| PFFSFGGLRFLL | 0.6621 ± 0.0053 |
| PFGSYIRHRENT | 0.759 ± 0.14 |
| PFHSLSATFPPR | 0.768 ± 0.086 |
| PFLFPLLSPFSV | 0.681 ± 0.019 |
| PFLHPTRLARSN | 0.712 ± 0.011 |
| PFLSPPPPSTPP | 0.704 ± 0.01 |
| PFPHLYTPRLLF | 0.571 ± 0.014 |
| PFPLPPLCPPAA | 0.722 ± 0.064 |
| PFPPLRSLPRPP | 0.737 ± 0.099 |
| PFPPPPPPPMPT | 0.691 ± 0.05 |
| PFPPPSPPPPSS | 0.6785 ± 0.003 |
| PFPPRLPSPATP | 0.6914 ± 0.0037 |
| PFPPSLPSLPLL | 0.698 ± 0.017 |
| PFPPYSLPLPSP | 0.759 ± 0.016 |
| PFPSPSRHSLFP | 0.723 ± 0.084 |
| PFRFLFGISLFF | 0.559 ± 0.015 |
| PFRLSPPLPPAP | 0.743 ± 0.084 |
| PFRSPYQRPLHY | 0.689 ± 0.039 |

| Sequence | protein stability index |
| --- | --- |
| PFSIPPPPPRYP | 0.766 ± 0.0092 |
| PFSPDVSSVVFL | 0.667 ± 0.032 |
| PFSPPLTPTFFP | 0.7052 ± 0.0057 |
| PFSPPPGPPPPP | 0.6806 ± 0.0034 |
| PFTSPAGSFPPP | 0.762 ± 0.068 |
| PFWTPASPPSFY | 0.748 ± 0.014 |
| PGAFDLPHSQAV | 0.552 ± 0.059 |
| PGCSCPSTRRTT | 0.655 ± 0.077 |
| PGGCQDPWAALC | 0.714 ± 0.077 |
| PGHPGSCPRRNG | 0.645 ± 0.046 |
| PGPDMSSVSSDY | 0.6 ± 0.11 |
| PGPLISAVPLPF | 0.733 ± 0.064 |
| PGPNPASCIPTW | 0.6835 ± 0.0021 |
| PGPWLGLTPCRT | 0.813 ± 0.14 |
| PGRAARLLPRPL | 0.712 ± 0.048 |
| PGRLTTERLSFQ | 0.7 ± 0.043 |
| PGRMEKKALKRP | 0.677 ± 0.014 |
| PGRQSPPAPLYR | 0.678 ± 0.0098 |
| PGVRGVKPVGVS | 0.675 ± 0.092 |
| PGVRPPSLVPPL | 0.65 ± 0.11 |
| PHALSSFLSLFL | 0.791 ± 0.017 |
| PHAPHPPHPAPC | 0.653 ± 0.01 |
| PHARHPPDHRPF | 0.678 ± 0.059 |
